Test results taken from patent US9879306B2, “Luciferase biosensors for cAMP” (PROMEGA CORPORATION, priority 2008, dated 2018).

T1: GPR41 (Homo sapiens, UniProt O14843)
T1 sequence (O14843 1-346): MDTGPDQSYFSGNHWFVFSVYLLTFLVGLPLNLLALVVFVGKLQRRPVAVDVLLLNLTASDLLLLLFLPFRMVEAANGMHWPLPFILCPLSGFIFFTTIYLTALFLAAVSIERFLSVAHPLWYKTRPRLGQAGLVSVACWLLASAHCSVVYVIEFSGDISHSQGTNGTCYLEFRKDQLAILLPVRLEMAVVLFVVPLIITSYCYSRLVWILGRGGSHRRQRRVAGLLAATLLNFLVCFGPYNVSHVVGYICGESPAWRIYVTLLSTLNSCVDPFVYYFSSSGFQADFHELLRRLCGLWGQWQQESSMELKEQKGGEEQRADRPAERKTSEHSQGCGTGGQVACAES


Assays:
GPR41 [1] = test: Sodium proprionate CRC with biosensor variants in HEK293 cells stably expressing GPR41; assay type: cell-based; conditions: ratio of RLU of FSK treated well to untreated well
Procedure: (§1) After 24 hours, the cells were transiently transfected with one of the cAMP biosensor variants (Tables 7A and 7B). After another 24 hours, the cells were equilibrated for 2 hours at room temperature using 5 mM EF-luc in CO2 independent media with 10% FBS. Prior to the addition of the compounds, luminescence was measured. The compounds (12× stock in CO2 independent media without FBS) were then added to the cells. For GPR41 expressing cells, sodium proprionate CRC was added. […] The cells were allowed to incubate another 30 minutes and luminescence read on a Varioskan Flash. EC50 values and fold responses were calculated for each of the clones with each of the compounds with or without FSK. In addition, variants […]7 (Example VIIB), 16A2 (Example VIIB) and GS358 were also screened.

GPR41 [2] = target: T1, GPR41; test: as above; assay type: cell-based; conditions: for Fold Response Na proprionate + FSK(1 μM): with FSK 1 μM; for Fold Response Na proprionate: without FSK, ratio of induced to uninduced signal
Procedure: as §1

Molecule	Fold Signal Change (GPR41 [1])	Fold Response Na proprionate + FSK(1 μM) (GPR41 [2])	Fold Response Na proprionate (GPR41 [2])
L9-Y: L9 background with RIIβB F407Y; SEQ ID NO:98, 99 (protein) MPGAVGKVVPFFEAKVVDLDTGKTLGVNQRGELCVRGPMIMSGYVNNPEATNALIDKDGWLHSGDIAYWDEDEHFFIVDRLKSLIKYKGYQVAPAELESILLQHPNIFDAGVAGLPDDDAGELPAAVVVLEHGKTMTEKEIVDYVASQVTTAKKLRGGVVFVDEVPKGLTGKLDARKIREILIKAKKGSIAGCGDAGEGMYESFIESLPFLKSLEFSARLKVVDVIGTKVYNDGEQIIAQGDSADSFFIIESGEVKITMKRKGKSEVEENGAVEIARCSRGQYFGELALVTNKPRAASAHAIGTVKCLAMDVQAFERLLGPCMEIMKRNIATYEEQLVALYGTNMDIVAKNIKKGPAPFYPLEDGTAGEQLHKAMKRYALVPGTIAFTDAHIEVDITYAEYFEMSVRLAEAMKRYGLNTNHRIVVCSENSLQFFMPVLGALFIGVAVAPANDIYNERELLNSMGISQPTVVFVSKKGLQKILNVQKKLPIIQKIIIMDSKTDYQGFQSMYTFVTSHLPPGFNEYDFVPESFDRDKTIALIMNSSGSTGLPKGVALPHRTACVRFSHARDPIFGNQIIPDTAILSVVPFHHGFGMFTTLGYLICGFRVVLMYRFEEELFLRSLQDYKIQSALLVPTLFSFFAKSTLIDKYDLSNLHEIASGGAPLSKEVGEAVAKRFHLPGIRQGYGLTETTSAILITPEGV	55.8 fold	3.88 fold	2.17 fold
L9-LQY: L9 background with Luc2.0 F518L, K541Q and RIIβB F407Y; SEQ ID NO:88, 89 (protein) MPGAVGKVVPFFEAKVVDLDTGKTLGVNQRGELCVRGPMIMSGYVNNPEATNALIDKDGWLHSGDIAYWDEDEHFFIVDRLKSLIKYKGYQVAPAELESILLQHPNIFDAGVAGLPDDDAGELPAAVVVLEHGKTMTEKEIVDYVASQVTTAKKLRGGVVLVDEVPKGLTGKLDARKIREILIQAKKGSIAGCGDAGEGMYESFIESLPFLKSLEFSARLKVVDVIGTKVYNDGEQIIAQGDSADSFFIIESGEVKITMKRKGKSEVEENGAVEIARCSRGQYFGELALVTNKPRAASAHAIGTVKCLAMDVQAFERLLGPCMEIMKRNIATYEEQLVALYGTNMDIVAKNIKKGPAPFYPLEDGTAGEQLHKAMKRYALVPGTIAFTDAHIEVDITYAEYFEMSVRLAEAMKRYGLNTNHRIVVCSENSLQFFMPVLGALFIGVAVAPANDIYNERELLNSMGISQPTVVFVSKKGLQKILNVQKKLPIIQKIIIMDSKTDYQGFQSMYTFVTSHLPPGFNEYDFVPESFDRDKTIALIMNSSGSTGLPKGVALPHRTACVRFSHARDPIFGNQIIPDTAILSVVPFHHGFGMFTTLGYLICGFRVVLMYRFEEELFLRSLQDYKIQSALLVPTLFSFFAKSTLIDKYDLSNLHEIASGGAPLSKEVGEAVAKRFHLPGIRQGYGLTETTSAILITPEGV	136.0 fold	13.78 fold	1.95 fold
L9-LQ: L9 background with Luc2.0 F518L, K541Q; SEQ ID NO:102, 103 (protein) MPGAVGKVVPFFEAKVVDLDTGKTLGVNQRGELCVRGPMIMSGYVNNPEATNALIDKDGWLHSGDIAYWDEDEHFFIVDRLKSLIKYKGYQVAPAELESILLQHPNIFDAGVAGLPDDDAGELPAAVVVLEHGKTMTEKEIVDYVASQVTTAKKLRGGVVLVDEVPKGLTGKLDARKIREILIQAKKGSIAGCGDAGEGMYESFIESLPFLKSLEFSARLKVVDVIGTKVYNDGEQIIAQGDSADSFFIIESGEVKITMKRKGKSEVEENGAVEIARCSRGQYFGELALVTNKPRAASAHAIGTVKCLAMDVQAFERLLGPCMEIMKRNIATYEEQLVALFGTNMDIVAKNIKKGPAPFYPLEDGTAGEQLHKAMKRYALVPGTIAFTDAHIEVDITYAEYFEMSVRLAEAMKRYGLNTNHRIVVCSENSLQFFMPVLGALFIGVAVAPANDIYNERELLNSMGISQPTVVFVSKKGLQKILNVQKKLPIIQKIIIMDSKTDYQGFQSMYTFVTSHLPPGFNEYDFVPESFDRDKTIALIMNSSGSTGLPKGVALPHRTACVRFSHARDPIFGNQIIPDTAILSVVPFHHGFGMFTTLGYLICGFRVVLMYRFEEELFLRSLQDYKIQSALLVPTLFSFFAKSTLIDKYDLSNLHEIASGGAPLSKEVGEAVAKRFHLPGIRQGYGLTETTSAILITPEGV	98.6 fold	7.20 fold	2.83 fold
L9-IY: L9 background with Luc2.0 F369I and RIIβB F407Y; SEQ ID NO:76, 77 (protein) MPGAVGKVVPFIEAKVVDLDTGKTLGVNQRGELCVRGPMIMSGYVNNPEATNALIDKDGWLHSGDIAYWDEDEHFFIVDRLKSLIKYKGYQVAPAELESILLQHPNIFDAGVAGLPDDDAGELPAAVVVLEHGKTMTEKEIVDYVASQVTTAKKLRGGVVFVDEVPKGLTGKLDARKIREILIKAKKGSIAGCGDAGEGMYESFIESLPFLKSLEFSARLKVVDVIGTKVYNDGEQIIAQGDSADSFFIIESGEVKITMKRKGKSEVEENGAVEIARCSRGQYFGELALVTNKPRAASAHAIGTVKCLAMDVQAFERLLGPCMEIMKRNIATYEEQLVALYGTNMDIVAKNIKKGPAPFYPLEDGTAGEQLHKAMKRYALVPGTIAFTDAHIEVDITYAEYFEMSVRLAEAMKRYGLNTNHRIVVCSENSLQFFMPVLGALFIGVAVAPANDIYNERELLNSMGISQPTVVFVSKKGLQKILNVQKKLPIIQKIIIMDSKTDYQGFQSMYTFVTSHLPPGFNEYDFVPESFDRDKTIALIMNSSGSTGLPKGVALPHRTACVRFSHARDPIFGNQIIPDTAILSVVPFHHGFGMFTTLGYLICGFRVVLMYRFEEELFLRSLQDYKIQSALLVPTLFSFFAKSTLIDKYDLSNLHEIASGGAPLSKEVGEAVAKRFHLPGIRQGYGLTETTSAILITPEGV	86.4 fold	–	2.53 fold
L9-QY: L9 background with Luc2.0 K541Q and RIIβB F407Y; SEQ ID NO:90, 91 (protein) MPGAVGKVVPFFEAKVVDLDTGKTLGVNQRGELCVRGPMIMSGYVNNPEATNALIDKDGWLHSGDIAYWDEDEHFFIVDRLKSLIKYKGYQVAPAELESILLQHPNIFDAGVAGLPDDDAGELPAAVVVLEHGKTMTEKEIVDYVASQVTTAKKLRGGVVFVDEVPKGLTGKLDARKIREILIQAKKGSIAGCGDAGEGMYESFIESLPFLKSLEFSARLKVVDVIGTKVYNDGEQIIAQGDSADSFFIIESGEVKITMKRKGKSEVEENGAVEIARCSRGQYFGELALVTNKPRAASAHAIGTVKCLAMDVQAFERLLGPCMEIMKRNIATYEEQLVALYGTNMDIVAKNIKKGPAPFYPLEDGTAGEQLHKAMKRYALVPGTIAFTDAHIEVDITYAEYFEMSVRLAEAMKRYGLNTNHRIVVCSENSLQFFMPVLGALFIGVAVAPANDIYNERELLNSMGISQPTVVFVSKKGLQKILNVQKKLPIIQKIIIMDSKTDYQGFQSMYTFVTSHLPPGFNEYDFVPESFDRDKTIALIMNSSGSTGLPKGVALPHRTACVRFSHARDPIFGNQIIPDTAILSVVPFHHGFGMFTTLGYLICGFRVVLMYRFEEELFLRSLQDYKIQSALLVPTLFSFFAKSTLIDKYDLSNLHEIASGGAPLSKEVGEAVAKRFHLPGIRQGYGLTETTSAILITPEGV	61.3 fold	10.02 fold	2.01 fold
L9-LY: L9 background with Luc2.0 F518L and RIIβB F407Y; SEQ ID NO:100, 101 (protein) MPGAVGKVVPFFEAKVVDLDTGKTLGVNQRGELCVRGPMIMSGYVNNPEATNALIDKDGWLHSGDIAYWDEDEHFFIVDRLKSLIKYKGYQVAPAELESILLQHPNIFDAGVAGLPDDDAGELPAAVVVLEHGKTMTEKEIVDYVASQVTTAKKLRGGVVLVDEVPKGLTGKLDARKIREILIKAKKGSIAGCGDAGEGMYESFIESLPFLKSLEFSARLKVVDVIGTKVYNDGEQIIAQGDSADSFFIIESGEVKITMKRKGKSEVEENGAVEIARCSRGQYFGELALVTNKPRAASAHAIGTVKCLAMDVQAFERLLGPCMEIMKRNIATYEEQLVALYGTNMDIVAKNIKKGPAPFYPLEDGTAGEQLHKAMKRYALVPGTIAFTDAHIEVDITYAEYFEMSVRLAEAMKRYGLNTNHRIVVCSENSLQFFMPVLGALFIGVAVAPANDIYNERELLNSMGISQPTVVFVSKKGLQKILNVQKKLPIIQKIIIMDSKTDYQGFQSMYTFVTSHLPPGFNEYDFVPESFDRDKTIALIMNSSGSTGLPKGVALPHRTACVRFSHARDPIFGNQIIPDTAILSVVPFHHGFGMFTTLGYLICGFRVVLMYRFEEELFLRSLQDYKIQSALLVPTLFSFFAKSTLIDKYDLSNLHEIASGGAPLSKEVGEAVAKRFHLPGIRQGYGLTETTSAILITPEGV	126.7 fold	5.57 fold	2.07 fold
